Data as given in patent publication US6613506B1, “Compositions and methods for inhibiting human immunodeficiency virus infection by down-regulating human cellular genes” (Subsidiary No. 3, Inc., priority 2000, dated 2003).

B1: CF-684: GSE, SEQ ID NO:91, sense; human tumorous imaginal disc protein gene (nucleic acid, listed as Homo sapiens)
sense: AATCATTGTTTTTTCCTTTGTAAATGTTGATTCAGAAAAGGAAAGCACAGGCTAAGCAGTTGAAGGTTCCCCACCATTCAGTGAGAGCAG
B2: CF-673: GSE, SEQ ID NO:73, antisense; BBC-1 gene (nucleic acid, listed as Homo sapiens)
antisense: TCATCACTGAGGAAGAGAAGAATTTCAAAGCCTTCGCTAGTCTCCGTATGGCCCGTGCCAACGCCCGGCTCTTCGGCACACGGGCAAAA
B3: CF-685: GSE, SEQ ID NO:93, antisense; cell surface heparin binding protein gene (nucleic acid, listed as Homo sapiens)
antisense: TCGGGAGCCGCGGCTTATGGTGCAGACATGGCCAAGTCCAAGAACCACACCACACACAACCAGTCCCGAAAATGGCACAGAAATGGTATCAAGAAACCCCGAT
B4: CF-676: GSE, SEQ ID NO:63, antisense; alpha enolase gene (nucleic acid, listed as Homo sapiens)
antisense: GTACAACCAGCTCCTCAGAATTGAAGAGGAGCTGGGCAGCAAGGCTAAGTTTGCCGGCAGGAACTTCAGAAACCCCTTGGCCAAGTAAGCTGTGGGCAGGCAAGCCCTTCGGTCACCTGTTGGCT
B5: CF-660: GSE, SEQ ID NO:79, antisense; human hsp90 chaperone protein gene (nucleic acid, listed as Homo sapiens)
antisense: GAGAGGGGGGATCTCATCAGGAACTGCAGCATTGGGTTCCTCTGCTGCCACTTCATCTTCATCAAT
B6: CF-653: GSE, SEQ ID NO:67, antisense; MIP-1 alpha gene (nucleic acid, listed as Homo sapiens)
antisense: CCCACATTCCGTCACCTGCTCAGAATCATGCAGGTCTCCACTGCTGCCCTTGCTGTCCTCCTCTGCACCATGGCTCTCTGCAACCAGTTCTCTGCATCACTTGCTGCTGACACG
B7: CF-674: GSE, SEQ ID NO:69, sense; human translationally controlled tumor protein 1 gene (nucleic acid, listed as Homo sapiens)
sense: CTCTGTTCTTCAAGTTTCCCTTTGATTGATTTCATGTAATCTTTGATGTACTTCTTGTAGGCTTCTTTTGTGAAACTTGTTT
B8: CF-681: GSE, SEQ ID NO:85, antisense; FK506-binding protein A1 gene (nucleic acid, listed as Homo sapiens)
antisense: TGGGGGAAGGGTGCAGCAACGATTTCTCACCAAATCACTACACAGGACAGCAAAGGGGTGAGAAGGGGCTGAGGGAGGAAAAGCCAGGAAACTGAGATCAGCAGAGGGAGCCAAGCATCAAAAAACAGGAGATGCTGAAGCTGCGATGACCAGCATCATTTTCTTAAGAGAACATTCAAGGATTTGTCATGATGGCTGGGCTTTCACTTGGTGTTAAGTCTACAAACAGCACCTTCAATTGGAACTGTCAATTAAAGTTCTTAAGATTTAGGAAGTGGTGGAGCTTGGAAAGTTATGAGATTACAAAATTTCTGAAAGTC
B9: CF-527: GSE, SEQ ID NO:41; eukaryotic release factor 1 gene; acts through a peptide (nucleic acid, listed as Homo sapiens)
DNA: CGTTTAAGAATGGAAAAGCGACATAACTATGTTCGGAAAGTAGCAGAGACTGCTGTGCAGCTGTTTATTTCTGGGGACAAAGTGAATGTGGCTGGTCTAGTTTTAGCTGGATCCGCTC
modifications: chemistry not fully specified
notes: eukaryotic release factor 1 gene; acts through a peptide

tested on: HIV; assay: Selection of GSEs from PBMC library using CEM-ss cells; format: cell-based
Experimental: A cell-derived random fragment library (RFL) was constructed using cDNA from peripheral blood mononuclear cells (PBMC). Four buffy coats were obtained from four healthy blood donors and PBMCs were purified by Ficoll gradient centrifugation followed by stimulation with PHA (1 μg/mL). Cells were removed at 5, 10, and 24 hours after the addition of PHA and total RNA was isolated by Trizol extraction. All time points from all donors were then pooled. Polyadenylated mRNA was purified from the total RNA by passages through an oligo-dT column. cDNA was synthesized from the polyadenylated RNA with random primers using the Gibco Superscript Choice system for cDNA Synthesis (Gibco BRL, Rockville, Md.). The cDNA was normalized using the PCR-Select cDNA Subtraction kit (Clontech, Palo Alto, Calif.) based on the suppression subtractive hybridization methods of Diatchenko et al. (1996, Proc. Natl. Acad. Sci. USA 93, 6025-6030, 1996). The primers used for the normalization were: […]
The normalized random fragments were digested with XhoI and Sse83871, purified on quick spin columns (available from Qiagen, Valencia, Calif.) and ligated into the SseI/XhoI site of a bicistronic retroviral vector, EMCVNgfrMPBIN. This vector was based on LXSNgfr as described in Dunn el al. (1999, Gene Therapy 6:130-137). Modifications included substitution of the Moloney murine leukemia virus LTR with the hybrid LTR described by Baum et al., 1995, (J. Virol. 69:7541-7547) and replacement of the SV40 promoter with encephalomyocarditis virus (EMCV) internal ribosomal entry site isolated from the plasmid, pCITE (available from Amersham, Arlington Heights, Ill.). The ligation mix was then transformed into competent cells. The total plasmid was purified from approximately 50 million clones.
The PBMC library was screened using the methods described above in Section 1F. A total of 14 GSEs were isolated using CEM-ss cells. […] The complement of SEQ ID NO:69 is represented by SEQ ID NO:70. CF-675 (SEQ ID NO:71) is another GSE that has substantial sequence identity with a gene encoding human translationally controlled tumor protein 1 (GenBank Accession No. HUMCH13C4A). The complement of SEQ ID NO:71 is represented by SEQ ID NO:72. CF-679 (SEQ ID NO:83) is another GSE that has substantial sequence identity with a gene encoding human translationally controlled tumor protein 1 (GenBank Accession No. HUMCH13C4A). The complement of SEQ ID NO:83 is represented by SEQ ID NO:84. […] The complement of SEQ ID NO:75 is represented by SEQ ID NO:76. […] The complement of SEQ ID NO:79 is represented by SEQ ID NO:80. […] The complement of SEQ ID NO:67 is represented by SEQ ID NO:68. […] The complement of SEQ ID NO:63 is represented by SEQ ID NO:64. CF-675 (SEQ ID NO:65) is another GSE that has substantial sequence identity with a gene encoding alpha enolase protein. The complement of SEQ ID NO:65 is represented by SEQ ID NO:66. […] The complement of SEQ ID NO:73 is represented by SEQ ID NO:74. […] The complement of SEQ ID NO:81 is represented by SEQ ID NO:82. […] The complement of SEQ ID NO:85 is represented by SEQ ID NO:86. […] The complement of SEQ ID NO:89 is represented by SEQ ID NO:90. […] The complement of SEQ ID NO:91 is represented by SEQ ID NO:92. […] The complement of SEQ ID NO:93 is represented by SEQ ID NO:94. Another member of the cluster is CF-686 (SEQ ID NO:95), also having substantial sequence identity with a gene encoding cell surface heparin binding protein (Liu et al., ibid.). The complement of SEQ ID NO:95 is represented by SEQ ID NO:96.

**Q.** “CF-693: GSE, SEQ ID NO:75, sense; NEF interacting protein gene (sense GATTCTCAGCTGGTAGCTGGTGTTGCATTCAAGAAGACTTTCTCTTACGCTGGGTT; listed as Homo sapiens)” was tested. Which “HIV-suppressive activity of the GSE and active orientation” value (“HIV-suppressive activity” below) did it give?
**A.** Its value is “interferes with HIV replication in a sense orientation”.

**Q.** With B1 as the molecule, how does the “HIV-suppressive activity” value read?
**A.** The value was “interferes with HIV replication in a sense orientation”.

**Q.** Which “HIV-suppressive activity” value does the source give for B2 here?
**A.** The value was “interferes with HIV replication as an antisense molecule”.

**Q.** Which “HIV-suppressive activity” value does the source give for B3 here?
**A.** The value was “interfere with HIV replication as an antisense molecule”.

**Q.** Which “HIV-suppressive activity” value does the source give for B4 here?
**A.** Its value is “interferes with HIV replication as an antisense molecule”.

**Q.** B5 was tested. Which “HIV-suppressive activity” value did it give?
**A.** The value was “interferes with HIV replication as an antisense molecule”.

**Q.** How did the “HIV-suppressive activity” value turn out when B6 was run?
**A.** Its value is “interferes with HIV replication as an antisense molecule”.

**Q.** For B7, which “HIV-suppressive activity” value is on record?
**A.** Its value is “interferes with HIV replication in a sense orientation”.

**Q.** With B8 as the molecule, how does the “HIV-suppressive activity” value read?
**A.** The value was “interferes with HIV replication as an antisense molecule”.

tested on: HIV-1IIIB; assay: Selection of GSEs from HeLa cell library using productive infection of CEM-ss cells; format: cell-based
Experimental: Additionally, a normalized RFE library made from HeLa cells was transferred into CEM-ss cells and the neo resistant population was infected with TCID50 of 3000/10^6 cells of HIV-1IIIB. This RFE library was represented by 50×10^6 independent recombinant clones. Four and seven days after infection, a purified anti-CD4 monoclonal antibody, L77 (available from Becton Dickinson), was added at 5 Φg/mL to prevent syncytia formation. Syncytia formation is thought to be prevented by blocking the interaction between gp120 expressed on the surface of an infected cell and CD4 on the surface of an uninfected cell. […] At 10-12 days after infection, CD4^+, p24^− cell population representing uninfected cells were sorted. Genomic DNA from the CD4^+, p24^− cells was purified and used for PCR amplification of inserts with the vector-derived primers. The amplified mixture was digested with EcoRI and BamHI and cloned back into the retroviral vector. The selection was repeated for additional rounds.
The selection of GSEs from HeLa cell library using productive infection of CEM-ss cells isolated […] additional nucleic acid molecules which have substantial sequence identity with other cellular genes.
The selection of GSEs from a HeLa cell library using productive infection of CEM-ss cells isolated 21 additional nucleic acid molecules which have substantial sequence identity with other cellular genes. […] The complement of SEQ ID NO:25 is represented by SEQ ID NO:26. […] The complement of SEQ ID NO:27 is represented by SEQ ID NO:28. […] The complement of SEQ ID NO:29 is represented by SEQ ID NO:30. […] The complement of SEQ ID NO:31 is represented by SEQ ID NO:32. […] The complement of SEQ ID NO:33 is represented by SEQ ID NO:34. […] The complement of SEQ ID NO:35 is represented by SEQ ID NO:36. […] The complement of SEQ ID NO:37 is represented by SEQ ID NO:38. […] The complement of SEQ ID NO:39 is represented by SEQ ID NO:40. […] The complement of SEQ ID NO:41 is represented by SEQ ID NO:42. […] The complement of SEQ ID NO:43 is represented by SEQ ID NO:44. […] The complement of SEQ ID NO:45 is represented by SEQ ID NO:46. […] The complement of SEQ ID NO:47 is represented by SEQ ID NO:48. […] The complement of SEQ ID NO:49 is represented by SEQ ID NO:50. […] The complement of SEQ ID NO:51 is represented by SEQ ID NO:52. […] The complement of SEQ ID NO:53 is represented by SEQ ID NO:54. […] The complement of SEQ ID NO:55 is represented by SEQ ID NO:56. […] The complement of SEQ ID NO:57 is represented by SEQ ID NO:58. […] The complement of SEQ ID NO:59 is represented by SEQ ID NO:60. […] The complement of SEQ ID NO:61 is represented by SEQ ID NO:62. […] The complement of SEQ ID NO:77 is represented by SEQ ID NO:78. […] The complement of SEQ ID NO:87 is represented by SEQ ID NO:88. […] The complement of SEQ ID NO:99 is represented by SEQ ID NO:100. […] The complement of SEQ ID NO:101 is represented by SEQ ID NO:102. […] The complement of SEQ ID NO:103 is represented by SEQ ID NO:104. […] The complement of SEQ ID NO:105 is represented by SEQ ID NO: 106. […] The complement of SEQ ID NO:107 is represented by SEQ ID NO:108. […] The complement of SEQ ID NO:109 is represented by SEQ ID NO:110. […] The complement of SEQ ID NO:111 is represented by SEQ ID NO:112. […] The complement of SEQ ID NO:113 is represented by SEQ ID NO:114. […] The complement of SEQ ID NO:115 is represented by SEQ ID NO:116. […] The complement of SEQ ID NO:117 is represented by SEQ ID NO:118.

**Q.** Which “HIV-suppressive activity” value does the source give for B9 here?
**A.** Its value is “a peptide from which interferes with HIV replication”.
